The results in this text go back to PMC4491196.

For the experiment, the target named is Dnmt3a (ADD domain, ADD3a) ADD domain, 479-610 or 476-611 (UniProt Q9Y6K1). The experiment can be described thus: biotin-peptide pull-down, Coomassie. Particulars: reference: unmodified H3 peptide; sites S10.

Take “histone H3 (N-terminal peptides) (from UniProt P68431) H3S10ph peptide”: the “binding against the reference” value is “same”.
